Experimental data taken from the Human Domainome abundance scans (Beltran et al. 2025).
± gives the uncertainty stated by the source.

B1: Pre-mRNA-processing factor 40 homolog B, residues 274 to 332; numbered along this chain, Q6NWY9 (parent)
chain: SNREKAKQAFKELLRDKAVPSNASWEQAMKMVVTDPRYSALPKLSEKKQAFNAYKAQRE

Variants of: B1
Test: abundance fitness (aPCA) (normalised: wild type 0, dead -1); higher = more abundant; growth selection in yeast, the domain comes from the species named
Details: Homo sapiens

| Variant | abundance fitness |
| --- | --- |
| R37T | -0.658 ± 0.12 |
| R37Y | -1.25 ± 0.33 |
| R37F | -0.905 ± 0.21 |
| R37W | -0.836 ± 0.085 |
| R37A | -0.223 ± 0.069 |
| R37L | -0.6 ± 0.081 |
| R37M | -0.705 ± 0.094 |
| R37H | -0.776 ± 0.19 |
| R37D | -0.74 ± 0.16 |
| R37C | -0.668 ± 0.12 |
| R37Q | -0.49 ± 0.11 |
| R37E | -0.479 ± 0.082 |
| N22K | -0.553 ± 0.11 |
| N22C | -0.211 ± 0.13 |
| N22E | 0.03 ± 0.088 |
| N22G | -0.217 ± 0.062 |
| N22S | -0.036 ± 0.074 |
| N22Y | -0.57 ± 0.15 |
| N22R | -0.505 ± 0.06 |
| N22Q | -0.217 ± 0.16 |
| N22I | -1.04 ± 0.31 |
| N22T | -0.014 ± 0.082 |
| N22F | -0.906 ± 0.24 |
| N22W | -0.063 ± 0.1 |

| Variant | abundance fitness |
| --- | --- |
| N22M | -0.623 ± 0.19 |
| N22H | -0.179 ± 0.17 |
| N22L | -0.446 ± 0.089 |
| N22P | -0.664 ± 0.13 |
| N22D | 0.05 ± 0.08 |
| Y38E | -0.399 ± 0.08 |
| Y38P | -0.423 ± 0.081 |
| Y38T | -0.136 ± 0.077 |
| Y38V | -0.38 ± 0.062 |
| Y38S | -0.293 ± 0.059 |
| Y38H | -0.392 ± 0.13 |
| Y38Q | -0.284 ± 0.1 |
| Y38R | -0.476 ± 0.054 |
| Y38F | -0.02 ± 0.12 |
| Y38W | -0.085 ± 0.07 |
| Y38L | -0.546 ± 0.073 |
| Y38A | -0.317 ± 0.067 |
| Y38N | -0.466 ± 0.13 |
| Y38M | -0.613 ± 0.096 |
| Y38C | -0.368 ± 0.11 |
| Y38I | -0.548 ± 0.18 |
| Y38G | -0.436 ± 0.059 |
| Y38K | -0.217 ± 0.1 |
| Y38D | -0.346 ± 0.11 |

| Variant | abundance fitness |
| --- | --- |
| K30E | 0.067 ± 0.12 |
| K30Q | -0.072 ± 0.2 |
| K30T | -0.143 ± 0.084 |
| K30S | -0.156 ± 0.087 |
| K30P | -0.146 ± 0.11 |
| K30H | -0.384 ± 0.19 |
| K30G | -0.214 ± 0.067 |
| K30W | -0.999 ± 0.15 |
| K30I | -0.701 ± 0.19 |
| K30M | -0.247 ± 0.11 |
| K30F | -0.76 ± 0.17 |
| K30Y | -1.08 ± 0.23 |
| K30D | -0.411 ± 0.12 |
| K30L | -0.42 ± 0.088 |
| K30R | -0.03 ± 0.062 |
| K30C | -0.423 ± 0.16 |
| K30A | -0.061 ± 0.078 |
| K30V | -0.429 ± 0.074 |
| V33D | 0.006 ± 0.13 |
| V33G | 0.055 ± 0.054 |
| V33C | 0.137 ± 0.086 |
| V33S | 0.198 ± 0.073 |
| V33F | -0.228 ± 0.11 |
| V33K | 0.169 ± 0.12 |

| Variant | abundance fitness |
| --- | --- |
| V33W | 0.012 ± 0.088 |
| V33H | 0.164 ± 0.14 |
| V33Y | -0.269 ± 0.2 |
| V33M | 0.171 ± 0.12 |
| V33Q | 0.053 ± 0.17 |
| V33E | 0.169 ± 0.093 |
| V33A | 0.141 ± 0.074 |
| V33L | -0.135 ± 0.067 |
| V33P | -0.384 ± 0.12 |
| V33T | -0.042 ± 0.12 |
| V33N | 0.152 ± 0.16 |
| P20K | -0.654 ± 0.12 |
| P20R | -0.592 ± 0.053 |
| P20V | -0.578 ± 0.062 |
| P20N | -0.587 ± 0.13 |
| P20G | -0.391 ± 0.05 |
| P20T | -0.421 ± 0.083 |
| P20L | -0.641 ± 0.072 |
| P20F | -1.59 ± 0.38 |
| P20M | -0.549 ± 0.083 |
| P20Y | -0.641 ± 0.14 |
| P20H | -0.789 ± 0.16 |
| P20I | -0.753 ± 0.14 |
| P20S | -0.506 ± 0.066 |

| Variant | abundance fitness |
| --- | --- |
| W25Y | -0.18 ± 0.12 |
| W25D | -0.114 ± 0.1 |
| W25I | -0.251 ± 0.18 |
| W25H | -0.347 ± 0.22 |
| W25T | -0.149 ± 0.093 |
| W25L | -0.242 ± 0.087 |
| W25N | 0.038 ± 0.12 |
| W25R | -0.189 ± 0.057 |
| W25K | -0.221 ± 0.14 |
| W25E | -0.095 ± 0.092 |
| W25G | -0.161 ± 0.055 |
| W25S | -0.13 ± 0.075 |
| W25Q | -0.36 ± 0.3 |
| W25C | -0.109 ± 0.12 |
| W25F | 0.249 ± 0.12 |
| W25V | -0.291 ± 0.073 |
| W25P | -0.237 ± 0.11 |
| W25A | -0.244 ± 0.082 |
| Q27N | -0.174 ± 0.15 |
| Q27K | -0.292 ± 0.12 |
| Q27Y | -0.524 ± 0.15 |
| Q27E | 0.115 ± 0.11 |
| Q27R | -0.342 ± 0.059 |
| Q27G | -0.358 ± 0.059 |

| Variant | abundance fitness |
| --- | --- |
| Q27V | -0.297 ± 0.091 |
| Q27C | -0.422 ± 0.11 |
| Q27P | -0.531 ± 0.2 |
| Q27W | -1 ± 0.095 |
| Q27A | -0.143 ± 0.091 |
| Q27T | 0.027 ± 0.11 |
| Q27F | -0.884 ± 0.23 |
| Q27S | -0.406 ± 0.11 |
| Q27M | -0.297 ± 0.14 |
| Q27H | -0.096 ± 0.24 |
| Q27I | -0.301 ± 0.2 |
| S24C | -0.371 ± 0.16 |
| S24K | -0.229 ± 0.091 |
| S24P | -0.169 ± 0.13 |
| S24E | -0.306 ± 0.088 |
| S24A | -0.238 ± 0.063 |
| S24W | -1 ± 0.13 |
| S24Y | -0.74 ± 0.18 |
| S24V | -0.644 ± 0.067 |
| S24G | -0.366 ± 0.064 |
| S24H | -0.344 ± 0.15 |
| S24Q | -0.422 ± 0.1 |
| S24I | -0.65 ± 0.19 |
| S24D | -0.355 ± 0.12 |

| Variant | abundance fitness |
| --- | --- |
| S24F | -0.654 ± 0.13 |
| S24M | -0.591 ± 0.093 |
| S24R | -0.671 ± 0.079 |
| S24N | -0.447 ± 0.2 |
| V32H | -0.091 ± 0.13 |
| V32E | -0.166 ± 0.09 |
| V32P | -0.439 ± 0.11 |
| V32W | -0.732 ± 0.091 |
| V32I | 0.178 ± 0.086 |
| V32K | -0.171 ± 0.11 |
| V32M | -0.175 ± 0.1 |
| V32S | -0.343 ± 0.075 |
| V32D | -0.347 ± 0.091 |
| V32F | -0.619 ± 0.13 |
| V32R | -0.599 ± 0.064 |
| V32T | -0.094 ± 0.083 |
| V32Q | -0.428 ± 0.14 |
| V32C | -0.113 ± 0.078 |
| V32G | -0.381 ± 0.055 |
| V32Y | -0.583 ± 0.12 |
| V32A | -0.489 ± 0.079 |
| V32L | -0.182 ± 0.1 |
| V32N | -0.294 ± 0.14 |
